Test results published in patent US20210032291A1, “Compstatin Analogs With Improved Pharmacokinetic Properties” (The Trustees of the University of Pennsylvania, priority 2011, published 2021).
Bridge positions count the residues as written; N and C are the ends. Square brackets hold non-standard residues; d marks the D form. Ends that are not written are not given here. Trp(1-Me) = Cn1cc(C[C@H](N)C(=O)O)c2ccccc21; NMeI = CC[C@H](C)[C@H](NC)C(=O)O; Orn = NCCC[C@H](N)C(=O)O; Sar = CNCC(=O)O

B1: Peptide 6: Arg-Ile-[Cys-Val-Trp(Me)-Gln-Asp-Trp-Sar-Ala-His-Arg-Cys]-mIle-NH2 (peptide)
peptide: RICV[Trp(1-Me)]QDW[Sar]AHRC[NMeI]-NH2
modifications: disulfide 3-13; N-terminus assumed
SMILES: CC[C@H](C)[C@H](NC(=O)[C@@H](N)CCCNC(=N)N)C(=O)N[C@H]1CSSC[C@@H](C(=O)N(C)[C@H](C(N)=O)[C@@H](C)CC)NC(=O)[C@H](CCCNC(=N)N)NC(=O)[C@H](Cc2c[nH]cn2)NC(=O)[C@H](C)NC(=O)CN(C)C(=O)[C@H](Cc2c[nH]c3ccccc23)NC(=O)[C@H](CC(=O)O)NC(=O)[C@H](CCC(N)=O)NC(=O)[C@H](Cc2cn(C)c3ccccc23)NC(=O)[C@H](C(C)C)NC1=O
B2: Peptide 5: Phe-Ile-[Cys-Val-Trp(Me)-Gln-Asp-Trp-Sar-Ala-His-Arg-Cys]-mIle-NH2 (peptide)
peptide: FICV[Trp(1-Me)]QDW[Sar]AHRC[NMeI]-NH2
modifications: disulfide 3-13; N-terminus assumed
SMILES: CC[C@H](C)[C@H](NC(=O)[C@@H](N)Cc1ccccc1)C(=O)N[C@H]1CSSC[C@@H](C(=O)N(C)[C@H](C(N)=O)[C@@H](C)CC)NC(=O)[C@H](CCCNC(=N)N)NC(=O)[C@H](Cc2c[nH]cn2)NC(=O)[C@H](C)NC(=O)CN(C)C(=O)[C@H](Cc2c[nH]c3ccccc23)NC(=O)[C@H](CC(=O)O)NC(=O)[C@H](CCC(N)=O)NC(=O)[C@H](Cc2cn(C)c3ccccc23)NC(=O)[C@H](C(C)C)NC1=O
B3: Compstatin 30 (Cp30): Sar-Ile-[Cys-Val-Trp(Me)-Gln-Asp-Trp-Sar-Ala-His-Arg-Cys]-mIle-NH2 (peptide)
peptide: GICVWQDWGAHRCI
modifications: Sar (N-methyl-Gly) at Xaa0 (N-terminus); Trp(Me) at position 4; Sar at position 8; mIle at position 13; C-terminal -NH2; cyclic via Cys2-Cys12 disulfide (compstatin position numbering)
B4: Peptide 10: mPhe-Ile-[Cys-Val-Trp(Me)-Gln-Asp-Trp-Sar-Ala-His-Arg-Cys]-mIle-NH2 (peptide)
peptide: FICVWQDWGAHRCI
modifications: mPhe (N-methyl-Phe) at Xaa0; Trp(Me) at position 4; Sar at position 8; mIle at position 13; C-terminal -NH2; cyclic via Cys2-Cys12 disulfide (compstatin position numbering)
B5: Peptide 7: Trp-Ile-[Cys-Val-Trp(Me)-Gln-Asp-Trp-Sar-Ala-His-Arg-Cys]-mIle-NH2 (peptide)
peptide: WICV[Trp(1-Me)]QDW[Sar]AHRC[NMeI]-NH2
modifications: disulfide 3-13; N-terminus assumed
SMILES: CC[C@H](C)[C@H](NC(=O)[C@@H](N)Cc1c[nH]c2ccccc12)C(=O)N[C@H]1CSSC[C@@H](C(=O)N(C)[C@H](C(N)=O)[C@@H](C)CC)NC(=O)[C@H](CCCNC(=N)N)NC(=O)[C@H](Cc2c[nH]cn2)NC(=O)[C@H](C)NC(=O)CN(C)C(=O)[C@H](Cc2c[nH]c3ccccc23)NC(=O)[C@H](CC(=O)O)NC(=O)[C@H](CCC(N)=O)NC(=O)[C@H](Cc2cn(C)c3ccccc23)NC(=O)[C@H](C(C)C)NC1=O
B6: Peptide 11: mVal-Ile-[Cys-Val-Trp(Me)-Gln-Asp-Trp-Sar-Ala-His-Arg-Cys]-mIle-NH2 (peptide)
peptide: VICVWQDWGAHRCI
modifications: mVal (N-methyl-Val) at Xaa0; Trp(Me) at position 4; Sar at position 8; mIle at position 13; C-terminal -NH2; cyclic via Cys2-Cys12 disulfide (compstatin position numbering)
B7: Peptide 13: mAla-Ile-[Cys-Val-Trp(Me)-Gln-Asp-Trp-Sar-Ala-His-Arg-Cys]-mIle-NH2 (peptide)
peptide: AICVWQDWGAHRCI
modifications: mAla (N-methyl-Ala) at Xaa0; Trp(Me) at position 4; Sar at position 8; mIle at position 13; C-terminal -NH2; cyclic via Cys2-Cys12 disulfide (compstatin position numbering)
B8: Peptide 12: mIle-Ile-[Cys-Val-Trp(Me)-Gln-Asp-Trp-Sar-Ala-His-Arg-Cys]-mIle-NH2 (peptide)
peptide: IICVWQDWGAHRCI
modifications: mIle (N-methyl-Ile; printed 'mlle') at Xaa0; Trp(Me) at position 4; Sar at position 8; mIle at position 13; C-terminal -NH2; cyclic via Cys2-Cys12 disulfide (compstatin position numbering)
B9: Peptide 20: Tyr-Gly-[Cys-Val-Trp(Me)-Gln-Asp-Trp-Sar-Ala-His-Arg-Cys]-mIle-NH2 (peptide)
peptide: YGCV[Trp(1-Me)]QDW[Sar]AHRC[NMeI]-NH2
modifications: disulfide 3-13; N-terminus assumed
SMILES: CC[C@H](C)[C@@H](C(N)=O)N(C)C(=O)[C@@H]1CSSC[C@H](NC(=O)CNC(=O)[C@@H](N)Cc2ccc(O)cc2)C(=O)N[C@@H](C(C)C)C(=O)N[C@@H](Cc2cn(C)c3ccccc23)C(=O)N[C@@H](CCC(N)=O)C(=O)N[C@@H](CC(=O)O)C(=O)N[C@@H](Cc2c[nH]c3ccccc23)C(=O)N(C)CC(=O)N[C@@H](C)C(=O)N[C@@H](Cc2c[nH]cn2)C(=O)N[C@@H](CCCNC(=N)N)C(=O)N1
B10: Peptide 8: Thr-Ile-[Cys-Val-Trp(Me)-Gln-Asp-Trp-Sar-Ala-His-Arg-Cys]-mIle-NH2 (peptide)
peptide: TICV[Trp(1-Me)]QDW[Sar]AHRC[NMeI]-NH2
modifications: disulfide 3-13; N-terminus assumed
SMILES: CC[C@H](C)[C@H](NC(=O)[C@@H](N)[C@@H](C)O)C(=O)N[C@H]1CSSC[C@@H](C(=O)N(C)[C@H](C(N)=O)[C@@H](C)CC)NC(=O)[C@H](CCCNC(=N)N)NC(=O)[C@H](Cc2c[nH]cn2)NC(=O)[C@H](C)NC(=O)CN(C)C(=O)[C@H](Cc2c[nH]c3ccccc23)NC(=O)[C@H](CC(=O)O)NC(=O)[C@H](CCC(N)=O)NC(=O)[C@H](Cc2cn(C)c3ccccc23)NC(=O)[C@H](C(C)C)NC1=O
B11: Peptide 1: Me-Ile-[Cys-Val-Trp(Me)-Gln-Asp-Trp-Sar-Ala-His-Arg-Cys]-mIle-NH2 (peptide)
peptide: Me-ICVWQDW[Sar]AHRC[NMeI]-NH2
modifications: disulfide 2-12; not fully specified (residue 4); printed as Me-Ile-[Cys-Val-Trp(Me)-Gln-Asp-Trp-Sar-Ala-His-Arg-Cys]-mIle-NH2
B12: Peptide 19: Ac-Trp-[Cys-Val-Trp(Me)-Gln-Asp-Trp-Sar-Ala-His-Arg-Cys]-mIle-NH2 (peptide)
peptide: Ac-WCV[Trp(1-Me)]QDW[Sar]AHRC[NMeI]-NH2
modifications: disulfide 2-12
SMILES: CC[C@H](C)[C@@H](C(N)=O)N(C)C(=O)[C@@H]1CSSC[C@H](NC(=O)[C@H](Cc2c[nH]c3ccccc23)NC(C)=O)C(=O)N[C@@H](C(C)C)C(=O)N[C@@H](Cc2cn(C)c3ccccc23)C(=O)N[C@@H](CCC(N)=O)C(=O)N[C@@H](CC(=O)O)C(=O)N[C@@H](Cc2c[nH]c3ccccc23)C(=O)N(C)CC(=O)N[C@@H](C)C(=O)N[C@@H](Cc2c[nH]cn2)C(=O)N[C@@H](CCCNC(=N)N)C(=O)N1
B13: Peptide 2: Gly-Ile-[Cys-Val-Trp(Me)-Gln-Asp-Trp-Sar-Ala-His-Arg-Cys]-mIle-NH2 (peptide)
peptide: GICV[Trp(1-Me)]QDW[Sar]AHRC[NMeI]-NH2
modifications: disulfide 3-13; N-terminus assumed
SMILES: CC[C@H](C)[C@H](NC(=O)CN)C(=O)N[C@H]1CSSC[C@@H](C(=O)N(C)[C@H](C(N)=O)[C@@H](C)CC)NC(=O)[C@H](CCCNC(=N)N)NC(=O)[C@H](Cc2c[nH]cn2)NC(=O)[C@H](C)NC(=O)CN(C)C(=O)[C@H](Cc2c[nH]c3ccccc23)NC(=O)[C@H](CC(=O)O)NC(=O)[C@H](CCC(N)=O)NC(=O)[C@H](Cc2cn(C)c3ccccc23)NC(=O)[C@H](C(C)C)NC1=O
B14: Cp40 (6Asn) (peptide)
peptide: [dY]ICV[Trp(1-Me)]QNW[Sar]AHRC[NMeI]-NH2
modifications: disulfide 3-13; N-terminus assumed
SMILES: CC[C@H](C)[C@H](NC(=O)[C@H](N)Cc1ccc(O)cc1)C(=O)N[C@H]1CSSC[C@@H](C(=O)N(C)[C@H](C(N)=O)[C@@H](C)CC)NC(=O)[C@H](CCCNC(=N)N)NC(=O)[C@H](Cc2c[nH]cn2)NC(=O)[C@H](C)NC(=O)CN(C)C(=O)[C@H](Cc2c[nH]c3ccccc23)NC(=O)[C@H](CC(N)=O)NC(=O)[C@H](CCC(N)=O)NC(=O)[C@H](Cc2cn(C)c3ccccc23)NC(=O)[C@H](C(C)C)NC1=O
B15: Cp40 (11Orn 6Asn) (peptide)
peptide: [dY]ICV[Trp(1-Me)]QNW[Sar]AH[Orn]C[NMeI]-NH2
modifications: disulfide 3-13
B16: Cp40 (11Orn) (peptide)
peptide: [dY]ICV[Trp(1-Me)]QDW[Sar]AH[Orn]C[NMeI]-NH2
modifications: disulfide 3-13

target: C3b (biotinylated, captured site-specifically on a streptavidin chip) (UniProt P01024); assay: SPR (Biacore 3000), single-cycle kinetics, biotinylated C3b on streptavidin chip, peptide as analyte, 1:1 Langmuir fit

Kd | koff | kon | Binder
1.7 nM | 0.0029 s⁻¹ | 1.7e+06 M⁻¹ s⁻¹ | B1
1.6 nM | 0.0033 s⁻¹ | 2.1e+06 M⁻¹ s⁻¹ | B2
1.6 nM | 0.0029 s⁻¹ | 1.9e+06 M⁻¹ s⁻¹ | B3
1.8 nM | 0.0029 s⁻¹ | 1.6e+06 M⁻¹ s⁻¹ | B4
2.2 nM | 0.0036 s⁻¹ | 1.6e+06 M⁻¹ s⁻¹ | B5
1.9 nM | 0.0035 s⁻¹ | 1.8e+06 M⁻¹ s⁻¹ | B6
2.5 nM | 0.0034 s⁻¹ | 1.4e+06 M⁻¹ s⁻¹ | B7
2.4 nM | 0.0037 s⁻¹ | 1.6e+06 M⁻¹ s⁻¹ | B8
3.5 nM | 0.0073 s⁻¹ | 2.1e+06 M⁻¹ s⁻¹ | B9
2.6 nM | 0.0031 s⁻¹ | 1.2e+06 M⁻¹ s⁻¹ | B10
18.6 nM | 0.0248 s⁻¹ | 1.3e+06 M⁻¹ s⁻¹ | B11
0.5 nM | 0.0017 s⁻¹ | 3.8e+06 M⁻¹ s⁻¹ | B12
2.5 nM | 0.0029 s⁻¹ | 1.2e+06 M⁻¹ s⁻¹ | B13

target: C3b (biotinylated, captured site-specifically on a streptavidin chip) (UniProt P01024); assay: SPR, single-cycle kinetics on immobilised C3b (method of Example 2)

Kd | koff | kon | Binder
3 nM | 0.0028 s⁻¹ | 900000 M⁻¹ s⁻¹ | B14
1.5 nM | 0.0028 s⁻¹ | 2e+06 M⁻¹ s⁻¹ | B15
0.8 nM | 0.002 s⁻¹ | 2.5e+06 M⁻¹ s⁻¹ | B16

target: C3b (biotinylated, captured site-specifically on a streptavidin chip) (UniProt P01024); assay: SPR on immobilised C3b

fold weaker binding affinity than peptide 4 | Binder
3 fold | B9
